Test results as given in US20220275059A1 (HARBOUR ANTIBODIES, published 2022).

Molecular target: peptide 24.end
Assay: ELISA on coated peptide 24.end, A450 [B]

B1: 2.6h11 (antibody, V domains shown)
VH: EVQLVESGGGLVQPGRSLRLSCTASGFTFGDYVMSWFRQAPGKGLEWVGFIRSKAHGGTTEYAASVNGRFSISRDDSKTIAYLQMNSLKSEDTAVYYCTWLRNDYYYGMDVWGLGTTVTVSS
VL: DIMMTQSPLSLPVTPGEPASISCRSSQRLLHSNGYSYVDWYLQKPGQSPQLLIYLGSDRASGVPDRFSGSGSGTDFTLKISRVEAEDVGVYYCMQTLQTPWTFGQGTKVEIKR
binding result: no binding
